Assay results: article PMC5548808, “Structural and functional insights into the lipopolysaccharide ABC transporter LptB2FG” (Nature Communications, 2017)

B1: LptB of E. coli (in purified LptB2CFG) (natural protein, UniProt P0A9V1 1-241, looked up)
chain: MATLTAKNLAKAYKGRRVVEDVSLTVNSGEIVGLLGPNGAGKTTTFYMVVGIVPRDAGNIIIDDDDISLLPLHARARRGIGYLPQEASIFRRLSVYDNLMAVLQIRDDLSAEQREDRANELMEEFHIEHLRDSMGQSLSGGERRRVEIARALAANPKFILLDEPFAGVDPISVIDIKRIIEHLRDSGLGVLITDHNVRETLAVCERAYIVSQGHLIAHGTPTEILQDEHVKRVYLGEDFRL
notes: in the K. pneumoniae construct and in the E. coli pTRC99a-Kan LptBFG plasmid it is an 8xHis at the C terminus of LptB

How the values were obtained:
Assay in all cases: SEC; co-expressed E. coli LptB2CFG complexes (wild type and mutants) purified as the K. pneumoniae complex; HiLoad 16/600 Superdex 200 pg, 20 mM Tris-Cl pH 7.8, 150 mM NaCl, 5% glycerol, 0.05% DDM
Conditions in all cases: both partners purified
[1] = target: T1, LptG K34E/R136E of E. coli (in purified mutant LptB2CFG) (E. coli, UniProt P0ADC6 1-360, K34E | R136E)
T1 construct: LptG, E. coli, double mutant K34E/R136E
T1 sequence (looked up): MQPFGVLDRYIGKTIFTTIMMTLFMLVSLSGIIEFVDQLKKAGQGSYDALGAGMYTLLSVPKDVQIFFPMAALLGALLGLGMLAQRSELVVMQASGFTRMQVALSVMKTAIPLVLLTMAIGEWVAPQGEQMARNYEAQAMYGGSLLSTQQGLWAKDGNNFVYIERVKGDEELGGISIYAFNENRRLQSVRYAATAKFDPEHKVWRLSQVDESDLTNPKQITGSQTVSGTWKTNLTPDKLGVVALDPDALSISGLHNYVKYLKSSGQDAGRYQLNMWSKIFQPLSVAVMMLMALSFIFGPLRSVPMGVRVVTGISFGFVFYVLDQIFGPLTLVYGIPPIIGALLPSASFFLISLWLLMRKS

[2] = target: T2, LptF of E. coli (in purified wild-type LptB2CFG) (E. coli, UniProt P0AF98 1-366)
T2 construct: LptF, E. coli, transmembrane subunit of the LptB2CFG complex
T2 sequence (looked up): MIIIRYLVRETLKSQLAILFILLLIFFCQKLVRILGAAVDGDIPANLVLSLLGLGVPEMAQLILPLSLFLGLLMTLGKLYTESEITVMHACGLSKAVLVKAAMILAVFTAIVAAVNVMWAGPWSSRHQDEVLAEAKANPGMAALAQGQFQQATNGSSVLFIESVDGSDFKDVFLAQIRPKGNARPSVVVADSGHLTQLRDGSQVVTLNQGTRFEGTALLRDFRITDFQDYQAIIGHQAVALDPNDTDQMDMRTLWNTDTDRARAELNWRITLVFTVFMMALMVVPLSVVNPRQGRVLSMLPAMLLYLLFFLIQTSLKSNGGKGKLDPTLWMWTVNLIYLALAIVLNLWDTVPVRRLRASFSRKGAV

[3] = target: T3, LptF F26D/L62D of E. coli (in purified mutant LptB2CFG) (E. coli, UniProt P0AF98 1-366, F26D | L62D)
T3 construct: LptF, E. coli, double mutant F26D/L62D
T3 sequence (looked up): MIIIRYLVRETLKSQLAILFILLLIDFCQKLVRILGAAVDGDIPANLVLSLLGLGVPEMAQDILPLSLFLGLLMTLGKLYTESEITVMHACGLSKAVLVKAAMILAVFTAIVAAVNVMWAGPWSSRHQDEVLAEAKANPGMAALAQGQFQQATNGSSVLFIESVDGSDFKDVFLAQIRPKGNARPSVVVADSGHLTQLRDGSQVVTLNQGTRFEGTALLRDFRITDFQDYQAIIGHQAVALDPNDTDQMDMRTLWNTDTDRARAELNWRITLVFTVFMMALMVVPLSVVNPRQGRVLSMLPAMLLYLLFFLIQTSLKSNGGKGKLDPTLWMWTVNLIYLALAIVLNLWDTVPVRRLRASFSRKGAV

[4] = target: T4, LptG of E. coli (in purified wild-type LptB2CFG) (E. coli, UniProt P0ADC6 1-360)
T4 construct: LptG, E. coli, transmembrane subunit of the LptB2CFG complex
T4 sequence (looked up): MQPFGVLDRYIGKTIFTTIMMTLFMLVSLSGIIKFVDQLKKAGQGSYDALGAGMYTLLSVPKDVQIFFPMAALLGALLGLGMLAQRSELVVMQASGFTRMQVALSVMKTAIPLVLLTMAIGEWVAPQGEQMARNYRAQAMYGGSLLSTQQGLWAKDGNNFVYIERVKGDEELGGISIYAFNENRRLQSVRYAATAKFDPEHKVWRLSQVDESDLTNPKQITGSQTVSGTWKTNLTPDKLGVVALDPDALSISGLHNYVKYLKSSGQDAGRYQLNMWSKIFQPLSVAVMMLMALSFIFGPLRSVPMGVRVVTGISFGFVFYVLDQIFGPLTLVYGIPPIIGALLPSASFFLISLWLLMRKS

[5] = target: B1

Binder	binding result [1]	binding result [2]	binding result [3]	binding result [4]	binding result [5]
B1	binds	binds	binds	binds	–
LptC of E. coli (in purified LptB2CFG) (natural protein, UniProt P0ADV9 1-191, looked up, LptC, E. coli, inner membrane protein of the LptB2CFG complex; The construct of LptC is not described) MSKARRWVIIVLSLAVLVMIGINMAEKDDTAQVVVNNNDPTYKSEHTDTLVYNPEGALSYRLIAQHVEYYSDQAVSWFTQPVLTTFDKDKIPTWSVKADKAKLTNDRMLYLYGHVEVNALVPDSQLRRITTDNAQINLVTQDVTSEDLVTLYGTTFNSSGLKMRGNLRSKNAELIEKVRTSYEIQNKQTQP	–	–	–	–	binds
